Source: PMC10415612
Like-named read-outs stand apart in the source and are kept apart here.

Experiments:
[1] = biological target: bacterial proteasome activator (Bpa), fluorescein-labelled (M. tuberculosis) (UniProt P9WKX3); experiment: MST
[2] = biological target: bacterial proteasome activator (Bpa), fluorescein-labelled (M. tuberculosis) (UniProt P9WKX3)
[3] = biological target: bacterial proteasome activator (Bpa), labelled with RED-NHS second generation dye (M. tuberculosis) (UniProt P9WKX3); experiment: MST; temperature-related fluorescence intensity changes (T-jump model) on a Monolith NT.115; 250 nM Bpa-RED protomer titrated with serial dilutions of peptides 1-7; buffer M (50 mM HEPES-KOH pH 7.5, 150 mM NaCl, 5 mM MgCl2, 5% glycerol, 0.1% pluronic 127, 2% DMSO); 25°C; qualitative screen, then peptide 1 in triplicates
[4] = biological target: bacterial proteasome activator (Bpa), fluorescein-labelled (M. tuberculosis) (UniProt P9WKX3); experiment: MST; remark: listed apart in the source

Substance	Kd [1] [µM]	Bpa-mediated proteasomal degradation by 20S CP WT, SDS-PAGE time course, 37°C (unlabelled Bpa) (% degraded after 2 h) [2]	Kd [3] [µM]	Kd [4] [µM]	Bpa-mediated proteasomal degradation by 20S CP WT, SDS-PAGE time course, 37°C (unlabelled Bpa) (min to degradation) [2]
HspR H24A (natural protein)	12.1	90	–	–	–
HspR peptide 1 (residues 16-30)	–	–	330	–	–
HspRΔC9, C-terminal truncation variant of HspR (domain or fragment)	–	–	–	3.62	–
heat shock repressor HspR, wild type (natural protein)	3.56	–	–	5.6	< 5
